# In US8524668:
# Target: TLR2/TLR6 heterodimer
# Assay: cell-based or functional assay
substance,measurement,value
CBLB613 (peptide),NF-κB activation,200
CBLB617 (peptide),NF-κB activation,100
